Laboratory results reported in the Immune Epitope Database (IEDB).

Columns and labels:
Assay in all cases: IEDB peptide-MHC binding, purified MHC/competitive/radioactivity; filed as Kd, often an IC50 or EC50 that approximates it; ≥ and ≤ were set here for values at or beyond the usual limits of such assays
HLA-A*11:01 = biological target: HLA-A*11:01
HLA-A*33:01 = biological target: HLA-A*33:01
HLA-A*31:01 = biological target: HLA-A*31:01
HLA-A*03:01 = biological target: HLA-A*03:01
HLA-A*68:01 = biological target: HLA-A*68:01
[1] = source organism: Vaccinia virus WR
[2] = source organism: Dengue virus 3 Martinique/1243/1999
[3] = source organism: Dengue virus 4 Philippines/H241/1956
[4] = source organism: Dengue virus 2 Jamaica/1409/1983
[5] = source organism: SARS coronavirus Tor2
[6] = source organism: Dengue virus 1 Brazil/97-11/1997
[7] = source organism: Dengue virus 1 Singapore/S275/1990
[8] = source organism: Mammarenavirus machupoense

KFGKNHIHR gave a Kd (HLA-A*11:01; [1]) of no less than 35800 nM, a Kd (HLA-A*33:01; [1]) of 5310 nM and a Kd (HLA-A*31:01; [1]) of 4.47 nM. For the same sequence, the Kd (HLA-A*03:01; [1]) was 12300 nM and the Kd (HLA-A*68:01; [1]) was no less than 49100 nM.
Sequence ATKSEHTGR has a Kd (HLA-A*31:01; [2]) of 1.85 nM.
Sequence KFTILEYLY has a Kd (HLA-A*11:01; [1]) of 2180 nM, a Kd (HLA-A*33:01; [1]) of 9060 nM and a Kd (HLA-A*31:01; [1]) of 1030 nM. The Kd (HLA-A*03:01; [1]) was 7090 nM and the Kd (HLA-A*68:01; [1]) was 808 nM.
QLPKRGVRVR showed a Kd (HLA-A*11:01; [1]) of no less than 47000 nM, a Kd (HLA-A*33:01; [1]) of no less than 70000 nM and a Kd (HLA-A*31:01; [1]) of 5380 nM. It also gave a Kd (HLA-A*03:01; [1]) of no less than 22600 nM and a Kd (HLA-A*68:01; [1]) of no less than 20100 nM.
Work on KWLKECGVDR yielded a Kd (HLA-A*31:01; [3]) of 364 nM.
For EFKEFAAGR, the Kd (HLA-A*68:01; [4]) was 594 nM.
IMKSVGTGK showed a Kd (HLA-A*03:01; [2]) of 4.95 nM.
For DAKNDDWKK, the Kd (HLA-A*11:01; [1]) was 3100 nM, the Kd (HLA-A*33:01; [1]) was 2830 nM and the Kd (HLA-A*31:01; [1]) was no less than 36700 nM. It also gave a Kd (HLA-A*03:01; [1]) of 8230 nM and a Kd (HLA-A*68:01; [1]) of 104 nM.
Sequence FSLESDSIK has a Kd (HLA-A*11:01; [1]) of 565 nM, a Kd (HLA-A*33:01; [1]) of 2220 nM and a Kd (HLA-A*31:01; [1]) of 960 nM. For the same sequence, the Kd (HLA-A*03:01; [1]) was 1570 nM and the Kd (HLA-A*68:01; [1]) was 187 nM.
YIFPGDKTSY was tested, and the Kd (HLA-A*11:01; [1]) was 1260 nM, the Kd (HLA-A*33:01; [1]) was no less than 70000 nM and the Kd (HLA-A*31:01; [1]) was 18700 nM. The Kd (HLA-A*03:01; [1]) was 258 nM and the Kd (HLA-A*68:01; [1]) was 40.7 nM.
DVFFIPPEK showed a Kd (HLA-A*68:01; source organism: Dengue virus 2 16681-PDK53) of 3.62 nM.
Work on NQVIVNNLDK yielded a Kd (HLA-A*11:01; [5]) of 13300 nM, a Kd (HLA-A*33:01; [5]) of no less than 70000 nM and a Kd (HLA-A*31:01; [5]) of no less than 40700 nM. It also gave a Kd (HLA-A*03:01; [5]) of no less than 28900 nM and a Kd (HLA-A*68:01; [5]) of 13400 nM.
TLDTMDDMKK was tested, and the Kd (HLA-A*11:01; [1]) was 287 nM, the Kd (HLA-A*33:01; [1]) was no less than 70000 nM and the Kd (HLA-A*31:01; [1]) was no less than 30200 nM. For the same sequence, the Kd (HLA-A*03:01; [1]) was 762 nM and the Kd (HLA-A*68:01; [1]) was 2150 nM.
With LSSRATWAK the Kd (HLA-A*11:01; [3]) was 56.5 nM.
QVAINQVRR showed a Kd (HLA-A*68:01; [6]) of 104 nM.
Work on VFKEKVDTR yielded a Kd (HLA-A*33:01; [2]) of 63.1 nM.
Sequence YMIGQTGIQR has a Kd (HLA-A*33:01; [3]) of 79.2 nM and a Kd (HLA-A*68:01; [3]) of 98.3 nM.
FSTSAADIKR showed a Kd (HLA-A*11:01; [1]) of 247 nM, a Kd (HLA-A*33:01; [1]) of no less than 22500 nM and a Kd (HLA-A*31:01; [1]) of 11100 nM. For the same sequence, the Kd (HLA-A*03:01; [1]) was 18000 nM and the Kd (HLA-A*68:01; [1]) was 16.5 nM.
IQFMMSRRR showed a Kd (HLA-A*11:01; [5]) of 369 nM, a Kd (HLA-A*33:01; [5]) of 1440 nM and a Kd (HLA-A*31:01; [5]) of 4.4 nM. It also gave a Kd (HLA-A*03:01; [5]) of 353 nM and a Kd (HLA-A*68:01; [5]) of 1490 nM.
With KILDAVVAQE the Kd (HLA-A*03:01; source organism: Homo sapiens) was 847 nM.
In the case of IILSKIPYLR, the Kd (HLA-A*11:01; [1]) is reported as 40.7 nM, the Kd (HLA-A*33:01; [1]) is reported as 251 nM and the Kd (HLA-A*31:01; [1]) is reported as 4.77 nM. It also gave a Kd (HLA-A*03:01; [1]) of 40.9 nM and a Kd (HLA-A*68:01; [1]) of 0.777 nM.
Sequence TILDDNLYK has a Kd (HLA-A*11:01; [1]) of 14.8 nM, a Kd (HLA-A*33:01; [1]) of no less than 77700 nM and a Kd (HLA-A*31:01; [1]) of no less than 50300 nM. It also gave a Kd (HLA-A*03:01; [1]) of 390 nM and a Kd (HLA-A*68:01; [1]) of 1180 nM.
For PVETLFGSY, the Kd (HLA-A*11:01; [1]) was 2200 nM, the Kd (HLA-A*33:01; [1]) was no less than 77700 nM and the Kd (HLA-A*31:01; [1]) was no less than 62300 nM. For the same sequence, the Kd (HLA-A*03:01; [1]) was no less than 38900 nM and the Kd (HLA-A*68:01; [1]) was no less than 33500 nM.
In the case of MFEATARGAR, the Kd (HLA-A*33:01; [6]) is reported as 22.3 nM.
With ILARWGSFK the Kd (HLA-A*11:01; [7]) was 77.8 nM and the Kd (HLA-A*03:01; [7]) was 2.13 nM.
In the case of DTSNNIAEY, the Kd (HLA-A*11:01; [1]) is reported as no less than 5000 nM, the Kd (HLA-A*33:01; [1]) is reported as 7610 nM and the Kd (HLA-A*31:01; [1]) is reported as no less than 35600 nM. The Kd (HLA-A*03:01; [1]) was no less than 78000 nM and the Kd (HLA-A*68:01; [1]) was 2.74 nM.
For KVNSTLEQY, the Kd (HLA-A*11:01; [5]) was 445 nM, the Kd (HLA-A*33:01; [5]) was no less than 50400 nM and the Kd (HLA-A*31:01; [5]) was 2590 nM. The Kd (HLA-A*03:01; [5]) was 58.8 nM and the Kd (HLA-A*68:01; [5]) was 955 nM.
In the case of WLSMTDEMR, the Kd (HLA-A*11:01; [1]) is reported as no less than 46300 nM, the Kd (HLA-A*33:01; [1]) is reported as 6280 nM and the Kd (HLA-A*31:01; [1]) is reported as 1790 nM. It also gave a Kd (HLA-A*03:01; [1]) of no less than 78000 nM and a Kd (HLA-A*68:01; [1]) of 34.4 nM.
TQFNFNGHTY was tested, and the Kd (HLA-A*11:01; [1]) was 965 nM, the Kd (HLA-A*33:01; [1]) was 16100 nM and the Kd (HLA-A*31:01; [1]) was 4060 nM. It also gave a Kd (HLA-A*03:01; [1]) of 218 nM and a Kd (HLA-A*68:01; [1]) of 266 nM.
In the case of CQFDHVNTLH, the Kd (HLA-A*11:01; [8]) is reported as 8740 nM, the Kd (HLA-A*31:01; [8]) is reported as 1930 nM and the Kd (HLA-A*03:01; [8]) is reported as 18400 nM. It also gave a Kd (HLA-A*68:01; [8]) of 9280 nM.
Sequence EVTNPAVLR has a Kd (HLA-A*33:01; [6]) of 91.7 nM and a Kd (HLA-A*68:01; [6]) of 40 nM.
Sequence GVTLFFLSGK has a Kd (HLA-A*11:01; [6]) of 23.8 nM and a Kd (HLA-A*03:01; [6]) of 13.1 nM.
Work on RLCTREEFTK yielded a Kd (HLA-A*03:01; [2]) of 76.6 nM.
For AGLAFSLMK, the Kd (HLA-A*11:01; [6]) was 11.2 nM.
Sequence ALTALNDMGK has a Kd (HLA-A*11:01; [4]) of 1370 nM and a Kd (HLA-A*03:01; [4]) of 1290 nM.
Sequence GMLQGRGPLK has a Kd (HLA-A*11:01; [4]) of 37.9 nM and a Kd (HLA-A*03:01; [4]) of 6.17 nM.
With HMIVGRQEK the Kd (HLA-A*03:01; [4]) was 66.6 nM.
Sequence TTETPTWNR has a Kd (HLA-A*33:01; [2]) of 1.28 nM and a Kd (HLA-A*68:01; [2]) of 14.5 nM.
EFGKAKGSR was tested, and the Kd (HLA-A*33:01; [2]) was 125 nM.
With AARGYISTR the Kd (HLA-A*33:01; [4]) was 315 nM and the Kd (HLA-A*31:01; [4]) was 11.1 nM.
With KVVQHENLK the Kd (HLA-A*03:01; source organism: Dengue virus 3 Singapore/8120/1995) was 49 nM.
With NMLSIINKR the Kd (HLA-A*33:01; [2]) was 23 nM and the Kd (HLA-A*31:01; [2]) was 42.1 nM.
In the case of INMLKRVRNR, the Kd (HLA-A*31:01; [2]) is reported as 1570 nM.
Work on NVTEVKGYTK yielded a Kd (HLA-A*68:01; [3]) of 40.6 nM.
Sequence TAIFLTTLSR has a Kd (HLA-A*11:01; [4]) of 298 nM and a Kd (HLA-A*68:01; [4]) of 2.83 nM.
In the case of AIGTSITQK, the Kd (HLA-A*11:01; [6]) is reported as 60.9 nM and the Kd (HLA-A*03:01; [6]) is reported as 9.33 nM.
Work on RAGRVIDPR yielded a Kd (HLA-A*31:01; [3]) of 29.1 nM.
Sequence KLRPKWLDAR has a Kd (HLA-A*31:01; [3]) of 2.11 nM.
